B1: DLC1 (parent)
chain: KRSWEEHVTHWMGQPFNSDDRNTA

Variants of: B1
Experiment: protein stability index of a GFP-peptide fusion (GPS, HEK-293T) (PSI 1-6); higher = more stable
Settings: c terminus: a fixed tail appended
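Further: lentivirally expressed fusions sorted by FACS into six bins by GFP to DsRed ratio, PSI derived from sequencing read proportions per bin multiplied by bin number.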

Row | Variant | protein stability index
1 | KRSWEEDVTHWMGQPFNSDDRNTA [H7D] | 3.68
2 | KRSWEELVTHWMGQPFNSDDRNTA [H7L] | 2.64
3 | KRSWEEEVTHWMGQPFNSDDRNTA [H7E] | 3.1
4 | KRSWEEHPTHWMGQPFNSDDRNTA [V8P] | 4.21
5 | KRSWEEHSTHWMGQPFNSDDRNTA [V8S] | 3.88
6 | KRSWEEHTTHWMGQPFNSDDRNTA [V8T] | 3.84
7 | KRSWEEHRTHWMGQPFNSDDRNTA [V8R] | 4.22
8 | KRSWEEHETHWMGQPFNSDDRNTA [V8E] | 4.24
9 | KRSWEEHMTHWMGQPFNSDDRNTA [V8M] | 3.66
10 | KRSWEEHYTHWMGQPFNSDDRNTA [V8Y] | 3.99
11 | KRSWEEHGTHWMGQPFNSDDRNTA [V8G] | 4.02
12 | KRSWEEHCTHWMGQPFNSDDRNTA [V8C] | 3.98
13 | KRSWEEHATHWMGQPFNSDDRNTA [V8A] | 4.13
14 | KRSWEEHQTHWMGQPFNSDDRNTA [V8Q] | 3.86
15 | KRSWEEHDTHWMGQPFNSDDRNTA [V8D] | 4.42
16 | KRSWEEHNTHWMGQPFNSDDRNTA [V8N] | 4.13
17 | KRSWEEHWTHWMGQPFNSDDRNTA [V8W] | 3.39
18 | KRSWEEHHTHWMGQPFNSDDRNTA [V8H] | 4.04
19 | KRSWEEHLTHWMGQPFNSDDRNTA [V8L] | 3.31
20 | KRSWEEHFTHWMGQPFNSDDRNTA [V8F] | 3.34
21 | KRSWEEHITHWMGQPFNSDDRNTA [V8I] | 2.81
22 | KRSWEEHKTHWMGQPFNSDDRNTA [V8K] | 4.26
23 | KRSWEEHVAHWMGQPFNSDDRNTA [T9A] | 2.97
24 | KRSWEEHVNHWMGQPFNSDDRNTA [T9N] | 3.75

Row | Variant | protein stability index
25 | KRSWEEHVGHWMGQPFNSDDRNTA [T9G] | 3.14
26 | KRSWEEHVDHWMGQPFNSDDRNTA [T9D] | 4.32
27 | KRSWEEHVHHWMGQPFNSDDRNTA [T9H] | 3.46
28 | KRSWEEHVMHWMGQPFNSDDRNTA [T9M] | 3.48
29 | KRSWEEHVCHWMGQPFNSDDRNTA [T9C] | 2.6
30 | KRSWEEHVKHWMGQPFNSDDRNTA [T9K] | 3.59
31 | KRSWEEHVLHWMGQPFNSDDRNTA [T9L] | 2.53
32 | KRSWEEHVQHWMGQPFNSDDRNTA [T9Q] | 3.6
33 | KRSWEEHVIHWMGQPFNSDDRNTA [T9I] | 2.62
34 | KRSWEEHVPHWMGQPFNSDDRNTA [T9P] | 3.54
35 | KRSWEEHVEHWMGQPFNSDDRNTA [T9E] | 3.84
36 | KRSWEEHVFHWMGQPFNSDDRNTA [T9F] | 2.11
37 | KRSWEEHVRHWMGQPFNSDDRNTA [T9R] | 3.1
38 | KRSWCEHVTHWMGQPFNSDDRNTA [E5C] | 2.17
39 | KRSWNEHVTHWMGQPFNSDDRNTA [E5N] | 3.5
40 | KRSWGEHVTHWMGQPFNSDDRNTA [E5G] | 3.07
41 | KRSWMEHVTHWMGQPFNSDDRNTA [E5M] | 3.13
42 | KRSWPEHVTHWMGQPFNSDDRNTA [E5P] | 3.95
43 | KRSWVEHVTHWMGQPFNSDDRNTA [E5V] | 2.65
44 | KRSWKEHVTHWMGQPFNSDDRNTA [E5K] | 2.58
45 | KRSWDEHVTHWMGQPFNSDDRNTA [E5D] | 3.94
46 | KRSWSEHVTHWMGQPFNSDDRNTA [E5S] | 3.41
47 | KRSWTEHVTHWMGQPFNSDDRNTA [E5T] | 2.4
48 | KRSWWEHVTHWMGQPFNSDDRNTA [E5W] | 3.37

Row | Variant | protein stability index
49 | KRSWHEHVTHWMGQPFNSDDRNTA [E5H] | 3.56
50 | KRSWLEHVTHWMGQPFNSDDRNTA [E5L] | 2.47
51 | KRSWQEHVTHWMGQPFNSDDRNTA [E5Q] | 3.1
52 | KRSWFEHVTHWMGQPFNSDDRNTA [E5F] | 3.16
53 | KRSWYEHVTHWMGQPFNSDDRNTA [E5Y] | 3.04
54 | KRSWREHVTHWMGQPFNSDDRNTA [E5R] | 2.64
55 | KRSWAEHVTHWMGQPFNSDDRNTA [E5A] | 2.55
56 | KRSWIEHVTHWMGQPFNSDDRNTA [E5I] | 1.92
57 | KRDWEEHVTHWMGQPFNSDDRNTA [S3D] | 4.33
58 | KRHWEEHVTHWMGQPFNSDDRNTA [S3H] | 3.72
59 | KRCWEEHVTHWMGQPFNSDDRNTA [S3C] | 2.24
60 | KRVWEEHVTHWMGQPFNSDDRNTA [S3V] | 3.94
61 | KRPWEEHVTHWMGQPFNSDDRNTA [S3P] | 3.6
62 | KRQWEEHVTHWMGQPFNSDDRNTA [S3Q] | 3.54
63 | KRMWEEHVTHWMGQPFNSDDRNTA [S3M] | 3.35
64 | KRRWEEHVTHWMGQPFNSDDRNTA [S3R] | 3.34
65 | KREWEEHVTHWMGQPFNSDDRNTA [S3E] | 4.41
66 | KRGWEEHVTHWMGQPFNSDDRNTA [S3G] | 3.44
67 | KRTWEEHVTHWMGQPFNSDDRNTA [S3T] | 2.13
68 | KRKWEEHVTHWMGQPFNSDDRNTA [S3K] | 3.47
69 | KRIWEEHVTHWMGQPFNSDDRNTA [S3I] | 3.78
70 | KRLWEEHVTHWMGQPFNSDDRNTA [S3L] | 3.37
71 | KRWWEEHVTHWMGQPFNSDDRNTA [S3W] | 3
72 | KRAWEEHVTHWMGQPFNSDDRNTA [S3A] | 3.44

Row | Variant | protein stability index
73 | KRNWEEHVTHWMGQPFNSDDRNTA [S3N] | 3.81
74 | KRYWEEHVTHWMGQPFNSDDRNTA [S3Y] | 3.01
75 | KRFWEEHVTHWMGQPFNSDDRNTA [S3F] | 3.18
76 | ARSWEEHVTHWMGQPFNSDDRNTA [K1A] | 3.57
77 | DRSWEEHVTHWMGQPFNSDDRNTA [K1D] | 4.26
78 | VRSWEEHVTHWMGQPFNSDDRNTA [K1V] | 2.95
79 | SRSWEEHVTHWMGQPFNSDDRNTA [K1S] | 3.46
80 | NRSWEEHVTHWMGQPFNSDDRNTA [K1N] | 3.63
81 | MRSWEEHVTHWMGQPFNSDDRNTA [K1M] | 2.73
82 | HRSWEEHVTHWMGQPFNSDDRNTA [K1H] | 2.69
83 | FRSWEEHVTHWMGQPFNSDDRNTA [K1F] | 3.16
84 | PRSWEEHVTHWMGQPFNSDDRNTA [K1P] | 3.6
85 | IRSWEEHVTHWMGQPFNSDDRNTA [K1I] | 2.54
86 | TRSWEEHVTHWMGQPFNSDDRNTA [K1T] | 3.35
87 | QRSWEEHVTHWMGQPFNSDDRNTA [K1Q] | 3.76
88 | YRSWEEHVTHWMGQPFNSDDRNTA [K1Y] | 2.81
89 | ERSWEEHVTHWMGQPFNSDDRNTA [K1E] | 4.15
90 | GRSWEEHVTHWMGQPFNSDDRNTA [K1G] | 3.21
91 | LRSWEEHVTHWMGQPFNSDDRNTA [K1L] | 3.03
92 | WRSWEEHVTHWMGQPFNSDDRNTA [K1W] | 2.49
93 | RRSWEEHVTHWMGQPFNSDDRNTA [K1R] | 2.99
94 | CRSWEEHVTHWMGQPFNSDDRNTA [K1C] | 2.54

Reference: the supplement of paper PMC10567573
